What was measured:
Jurkat T cells = experiment: Biotin-avidin switch assays of S-nitrosation in Jurkat T cells ± etoposide; assay type: cell-based, human
Procedure: Jurkat cells were cultured in a 6-well plate at the density of 0.25×10^6/ml in complete medium RPMI 1640 from Corning (10-040-CV) supplemented with 10% FBS and Pen-Strep and incubated at 37° C. with 5% CO2 for 24 h. The cells were collected by centrifuging at 1000 g for 5 min, washed twice with serum-free medium, and re-suspended with 2 ml serum-free medium prior to peptide treatment.
Free thiols of proteins were blocked in lysis-blocking buffer containing 50 mM Tris, pH 7.5, 150 mM NaCl, 1% Triton X-100, 1 mM EDTA, 2% SDS, 0.1 mM neocuproine, 0.2 mM PSMF, and 40 mM N-ethylmaleimide (NEM) at 50° C. for 30 min in the dark. Excess NEM was removed using cold acetone precipitation. The protein pellets were generated by centrifugating at 14000 g for 10 min at 4° C. and washed 3 times using cold acetone. […]
For biotin-avidin switch assays: After 16 h incubation, the cells were washed twice with cold PBS and lysed in lysis-blocking buffer containing 50 mM Tris, pH 7.5, 150 mM NaCl, 1% Triton X-100, 1 mM EDTA, 2% SDS, 0.1 mM neocuproine, and 40 mM NEM supplemented with PMSF and protease inhibitor cocktail. The protein concentration was measured using the Bradford method. 50 μg of each lysate was analyzed by Western blot as starting material (inputs) and 200 μg proteins of each sample were subjected to the biotin switch and avidin assays, as described elsewhere herein. […]

caspase-3 = experiment: Caspase-3 activity assay in Jurkat T cells ± etoposide; assay type: cell-based, human; conditions: etoposide 8 μM 16 h compared to samples not treated with ETO
Procedure: The cells in suspension in 2 ml serum-free medium were treated with either 70% DMSO (20 μL, 0.7% final), scramble peptide, or inhibitory peptide at a final concentration of 10 μM and incubated at 37° C. for 1 h. After incubation, the cells were washed twice and incubated in complete medium at 37° C. for 8 h. The cells were then treated with (or without) etoposide (ETO) at 8 μM final at 37° C. for 16 h.
For Caspase-3 activity assays: After 16 h incubation, the cells were washed twice with cold PBS and lysed in the supplier's 1× lysis buffer (at 10 μL per 10^6 cells). After 15 min incubation on ice, the lysates were centrifuged at 16,000 g for 15 min at 4° C. and the supernatant collected. Caspase-3 activity was measured following the supplier's instructions (CASP3C-1KT, Sigma) after 2 and 3 h incubation.
Whether these observations correlated with an increased caspase-3 activity was next assessed with a colorimetric assay based on cleavage of the substrate […], under the same above conditions. […] It was concluded that disrupting the SNO-GC1→oTrx1→procaspase-3 transnitrosation cascade using a peptide inhibitory of the GC1/Trx1 interaction promotes Jurkat T-cells apoptosis.

[1] = target: T1, Oxidized GC1 (oGC1), recombinant human GC1 treated with 100 µM diamide, Q02153
T1 chain 1: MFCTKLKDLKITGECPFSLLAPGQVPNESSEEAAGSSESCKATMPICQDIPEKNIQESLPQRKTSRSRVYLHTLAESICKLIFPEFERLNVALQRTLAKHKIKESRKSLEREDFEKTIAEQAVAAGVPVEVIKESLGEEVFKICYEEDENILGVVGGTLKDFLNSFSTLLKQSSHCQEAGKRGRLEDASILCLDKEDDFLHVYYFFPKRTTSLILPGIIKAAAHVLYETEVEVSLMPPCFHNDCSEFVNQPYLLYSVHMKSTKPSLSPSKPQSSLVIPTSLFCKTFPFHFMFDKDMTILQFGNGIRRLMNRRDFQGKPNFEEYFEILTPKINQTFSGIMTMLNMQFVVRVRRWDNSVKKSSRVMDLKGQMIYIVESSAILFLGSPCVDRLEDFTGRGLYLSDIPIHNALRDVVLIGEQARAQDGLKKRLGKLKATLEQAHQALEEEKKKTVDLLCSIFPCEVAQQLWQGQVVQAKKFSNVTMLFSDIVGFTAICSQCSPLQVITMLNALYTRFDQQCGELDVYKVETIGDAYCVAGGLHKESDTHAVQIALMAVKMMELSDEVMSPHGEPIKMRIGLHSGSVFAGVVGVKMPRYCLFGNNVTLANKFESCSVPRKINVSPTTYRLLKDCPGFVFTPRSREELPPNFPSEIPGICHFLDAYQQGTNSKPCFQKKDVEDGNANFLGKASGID
T1 chain 2: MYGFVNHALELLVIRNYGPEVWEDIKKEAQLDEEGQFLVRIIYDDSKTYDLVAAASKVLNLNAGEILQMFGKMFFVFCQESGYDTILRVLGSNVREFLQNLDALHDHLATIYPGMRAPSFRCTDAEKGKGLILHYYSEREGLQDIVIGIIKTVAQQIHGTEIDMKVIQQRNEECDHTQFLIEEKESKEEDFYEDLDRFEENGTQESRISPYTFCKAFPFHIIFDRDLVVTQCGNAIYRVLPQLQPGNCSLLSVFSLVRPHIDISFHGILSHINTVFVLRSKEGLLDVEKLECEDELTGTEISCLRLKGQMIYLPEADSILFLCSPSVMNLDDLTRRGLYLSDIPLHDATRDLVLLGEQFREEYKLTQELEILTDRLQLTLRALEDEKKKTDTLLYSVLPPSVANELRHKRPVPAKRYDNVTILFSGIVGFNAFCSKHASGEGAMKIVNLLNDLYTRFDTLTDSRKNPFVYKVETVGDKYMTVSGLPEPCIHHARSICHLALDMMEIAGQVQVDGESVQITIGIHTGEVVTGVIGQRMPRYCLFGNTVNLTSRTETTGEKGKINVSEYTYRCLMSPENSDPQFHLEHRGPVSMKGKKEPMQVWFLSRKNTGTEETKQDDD

[2] = target: T2, Purified recombinant human soluble guanylyl cyclase (GC1), Q02153
T2 chain 1: T1 chain 1
T2 chain 2: T1 chain 2

[3] = target: T3, Oxidized Trx1 (oTrx1), recombinant human Trx1 treated with 100 µM diamide, P10599
T3 chain: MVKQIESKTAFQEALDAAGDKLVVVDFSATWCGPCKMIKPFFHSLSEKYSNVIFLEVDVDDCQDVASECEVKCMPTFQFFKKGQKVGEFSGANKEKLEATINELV

## COc1cc([C@@H]2c3cc4c(cc3[C@@H](O[C@@H]3O[C@@H]5CO[C@@H](C)O[C@H]5[C@H](O)[C@H]3O)[C@H]3COC(=O)[C@H]23)OCO4)cc(OC)c1O [Etoposide]
Jurkat T cells; peptide 10 μM 1 h, etoposide 8 μM 16 h (FIG. 8A left panel)
  global levels of S-nitrosation in Jurkat T cells: did not affect
Jurkat T cells; peptide 10 μM 1 h ± etoposide 8 μM 16 h, avidin purified, compared to DMSO and scramble peptide (FIG. 8A right panel)
  SNO-procaspase-3 level in Jurkat T cells: slightly reduced
caspase-3
  caspase-3 activity in Jurkat cells treated with ETO: significant increase

B1: Reduced Trx1 (rTrx1), recombinant human Trx1 treated with 10 mM DTT (protein)
chain: T3 chain
[1]
  conversion of oGC1 multimers into monomers (non-reducing gel, Western blot): rTrx1 converted oGC1 multimers into monomers to some extent
  conversion of oGC1 multimers into monomers in the presence of 125 µM scramble peptide: the reducing effect of Trx1 was maintained with the scramble peptide as control

B2: Thioredoxin 1 (Trx1) protein, purified (protein)
chain: T3 chain
[2]
  NO-stimulated GC1 activity (1 µM DEA-NO), purified GC1 + Trx1 1:7: FIG. 3A first confirmed the increased NO-stimulated activity of GC1 by Trx1
  NO-stimulated GC1 activity, purified GC1 + Trx1 in the presence of peptide 1 (25 µM): Trx1-dependent increase of NO-stimulated GC1 activity was similarly blunted by the 3 peptides
  NO-stimulated GC1 activity, purified GC1 + Trx1 in the presence of peptide 2 (25 µM): Trx1-dependent increase of NO-stimulated GC1 activity was similarly blunted by the 3 peptides
  NO-stimulated GC1 activity, purified GC1 + Trx1 in the presence of peptide 3 (25 µM): Trx1-dependent increase of NO-stimulated GC1 activity was similarly blunted by the 3 peptides
  NO-stimulated GC1 activity, purified GC1 + Trx1 in the presence of the scramble peptide (25 µM): the scramble peptide had no effect

B3: Reduced GC1 (rGC1), recombinant human GC1 treated with 10 mM DTT (protein)
chain 1: T1 chain 1
chain 2: T1 chain 2
[3]
  conversion of oTrx1 dimers into monomers (non-reducing gel, Western blot): rGC1 converted most of oTrx1 dimer into Trx1 monomers
  conversion of oTrx1 dimers into monomers in the presence of 125 µM scramble peptide: the rGC1-dependent conversation of Trx1 from dimers to monomers was maintained in the presence of the scramble peptide

Reference: patent US20240301386A1, “Soluble Guanylyl Cyclase (GC1) Mimetic Polypeptides and Methods of Use Thereof” (Rutgers, the State University of New Jersey, priority 2023, published 2024)
